Tests used:
Test in all cases: cell-based or functional assay
[1] = molecular target: HIV-1 Env of pseudovirus C3347.c11 (clade CRF01_AE) (HIV-1)
[2] = molecular target: HIV-1 Env of pseudovirus 235-47 (clade CRF02_AG) (HIV-1)
[3] = molecular target: HIV-1 Env of pseudovirus X2088_c9 (clade G) (HIV-1)
[4] = molecular target: HIV-1 Env of pseudovirus T251-18 (clade CRF02_AG) (HIV-1)
[5] = molecular target: HIV-1 Env of pseudovirus R2184.c04 (clade CRF01_AE) (HIV-1)
[6] = molecular target: HIV-1 Env of pseudovirus BJOX025000.01.1 (clade CRF01_AE (T/F)) (HIV-1)
[7] = molecular target: MuLV envelope (negative control pseudovirus) (MuLV)
[8] = molecular target: HIV-1 Env of pseudovirus ZM214M.PL15 (clade C) (HIV-1)
[9] = molecular target: HIV-1 Env of pseudovirus Ce704809221_1B3 (clade C (T/F)) (HIV-1)
[10] = molecular target: HIV-1 Env of pseudovirus ZM109F.PB4 (clade C) (HIV-1)
[11] = molecular target: HIV-1 Env of pseudovirus CNE17 (clade BC) (HIV-1)
[12] = molecular target: HIV-1 Env of pseudovirus CAP45.2.00.G3 (clade C) (HIV-1)
[13] = molecular target: HIV-1 Env of pseudovirus THRO4156.18 (clade B) (HIV-1)
[14] = molecular target: HIV-1 Env of pseudovirus 7030102001E5(Rev-) (clade C (T/F)) (HIV-1)
[15] = molecular target: HIV-1 Env of pseudovirus CNE30 (clade BC) (HIV-1)
[16] = molecular target: HIV-1 Env of pseudovirus TRJO4551.58 (clade B) (HIV-1)
[17] = molecular target: HIV-1 Env of pseudovirus 1012_11_TC21_3257 (clade B (T/F)) (HIV-1)
[18] = molecular target: HIV-1 Env of pseudovirus 62357_14_D3_4589 (clade B (T/F)) (HIV-1)
[19] = molecular target: HIV-1 Env of pseudovirus HIV-16055-2.3 (clade C) (HIV-1)
[20] = molecular target: HIV-1 Env of pseudovirus 1056_10_TA11_1826 (clade B (T/F)) (HIV-1)
[21] = molecular target: HIV-1 Env of pseudovirus Q769.d22 (clade A) (HIV-1)
[22] = molecular target: HIV-1 Env of pseudovirus WITO4160.33 (clade B) (HIV-1)
[23] = molecular target: HIV-1 Env of pseudovirus 6535.3 (clade B) (HIV-1)

10E8 (antibody)
IC50, titer in TZM.bl cells [1]: 0.016 µg/mL
IC80, titer in TZM.bl cells [1]: 0.167 µg/mL
IC50, titer in TZM.bl cells [2]: 0.384 µg/mL
IC80, titer in TZM.bl cells [2]: 2.07 µg/mL
IC50, titer in TZM.bl cells [3]: > 10 µg/mL
IC80, titer in TZM.bl cells [3]: > 10 µg/mL
IC50, titer in TZM.bl cells [4]: 2.36 µg/mL
IC80, titer in TZM.bl cells [4]: > 10 µg/mL
IC50, titer in TZM.bl cells [5]: 0.272 µg/mL
IC80, titer in TZM.bl cells [5]: 2.46 µg/mL
IC50, titer in TZM.bl cells [6]: 0.107 µg/mL
IC80, titer in TZM.bl cells [6]: 6.33 µg/mL

N49P7 (antibody)
IC50, neutralization titer in TZM.bl cells [7]: > 50 µg/mL
IC80, neutralization titer in TZM.bl cells [7]: > 50 µg/mL
MPI, neutralization in TZM.bl cells [7]: 9

N49P18.1 (antibody)
IC50 [8]: > 50 µg/mL
IC80 [8]: > 50 µg/mL
MPI [8]: 20
IC50 [7]: > 50 µg/mL
IC80 [7]: > 50 µg/mL
MPI [7]: 0
IC50 [9]: 41.6 µg/mL
IC80 [9]: > 50 µg/mL
MPI [9]: 59
IC50 [10]: 26.6 µg/mL
IC80 [10]: > 50 µg/mL
MPI [10]: 69
IC50 [11]: 39.7 µg/mL
IC80 [11]: > 50 µg/mL
MPI [11]: 56
IC50 [12]: 5.14 µg/mL
IC80 [12]: 33.1 µg/mL
MPI [12]: 88
IC50 [13]: > 50 µg/mL
IC80 [13]: > 50 µg/mL
MPI [13]: 19
IC50 [14]: 6.35 µg/mL
IC80 [14]: 17.7 µg/mL
MPI [14]: 98
IC50 [15]: 13.1 µg/mL
IC80 [15]: 32.2 µg/mL
MPI [15]: 93
IC50 [16]: 4.44 µg/mL
IC80 [16]: 14.7 µg/mL
MPI [16]: 99
IC50 [17]: 16.1 µg/mL
IC80 [17]: > 50 µg/mL
MPI [17]: 79
IC50 [18]: 10.4 µg/mL
IC80 [18]: 48 µg/mL
MPI [18]: 82
IC50 [19]: 8.04 µg/mL
IC80 [19]: 22.6 µg/mL
MPI [19]: 97
IC50 [20]: 30.5 µg/mL
IC80 [20]: > 50 µg/mL
MPI [20]: 62
IC50 [21]: 4.92 µg/mL
IC80 [21]: 18.3 µg/mL
MPI [21]: 97
IC50 [22]: 11 µg/mL
IC80 [22]: 37.6 µg/mL
MPI [22]: 87
IC50 [23]: 2.06 µg/mL
IC80 [23]: 11.4 µg/mL
MPI [23]: 100

PG9 (antibody)
IC50, titer in TZM.bl cells [1]: 0.032 µg/mL
IC80, titer in TZM.bl cells [1]: 0.113 µg/mL
IC50, titer in TZM.bl cells [2]: 0.233 µg/mL
IC80, titer in TZM.bl cells [2]: 1.2 µg/mL
IC50, titer in TZM.bl cells [3]: > 50 µg/mL
IC80, titer in TZM.bl cells [3]: > 50 µg/mL
IC50, titer in TZM.bl cells [4]: > 50 µg/mL
IC80, titer in TZM.bl cells [4]: > 50 µg/mL
IC50, titer in TZM.bl cells [5]: 0.255 µg/mL
IC80, titer in TZM.bl cells [5]: 1.24 µg/mL
IC50, titer in TZM.bl cells [6]: 0.144 µg/mL
IC80, titer in TZM.bl cells [6]: 0.335 µg/mL

N49P7.1 (antibody)
IC50, neutralization titer in TZM.bl cells [7]: > 50 µg/mL
IC80, neutralization titer in TZM.bl cells [7]: > 50 µg/mL
MPI, neutralization in TZM.bl cells [7]: 4

N49P11 (antibody)
IC50 [8]: 1.35 µg/mL
IC80 [8]: 8.98 µg/mL
MPI [8]: 100
IC50 [9]: 0.644 µg/mL
IC80 [9]: 3.3 µg/mL
MPI [9]: 100
IC50 [10]: 5.2 µg/mL
IC80 [10]: 19.4 µg/mL
MPI [10]: 100
IC50 [11]: 6.68 µg/mL
IC80 [11]: 25.6 µg/mL
MPI [11]: 100
IC50 [12]: 5.25 µg/mL
IC80 [12]: 24 µg/mL
MPI [12]: 100
IC50 [13]: 1.84 µg/mL
IC80 [13]: 10.4 µg/mL
MPI [13]: 100
IC50 [14]: 0.635 µg/mL
IC80 [14]: 2.29 µg/mL
MPI [14]: 100
IC50 [15]: 0.889 µg/mL
IC80 [15]: 4.45 µg/mL
MPI [15]: 100
IC50 [16]: 0.183 µg/mL
IC80 [16]: 0.656 µg/mL
MPI [16]: 100
IC50 [17]: 10.6 µg/mL
IC80 [17]: 29.3 µg/mL
MPI [17]: 100
IC50 [18]: 0.599 µg/mL
IC80 [18]: 3.56 µg/mL
MPI [18]: 100
IC50 [19]: 0.091 µg/mL
IC80 [19]: 0.503 µg/mL
MPI [19]: 100
IC50 [20]: 4.77 µg/mL
IC80 [20]: 14.2 µg/mL
MPI [20]: 100
IC50 [21]: 0.048 µg/mL
IC80 [21]: 0.308 µg/mL
MPI [21]: 100
IC50 [22]: 4.86 µg/mL
IC80 [22]: 13.2 µg/mL
MPI [22]: 100
IC50 [23]: 8.22 µg/mL
IC80 [23]: 17.2 µg/mL
MPI [23]: 100
